Bridge positions count the residues as written; N and C are the ends. Square brackets hold non-standard residues; d marks the D form. Primed or numbered codes have the meaning given here. Ends that are not written are not given here. * marks the point of attachment. NMeBn(CF3)2 = C-terminal N-methyl bis(trifluoromethyl)benzyl amide; O‑Bzl(CF3)2 = C-terminal bis(trifluoromethyl)benzyl ester; Glc = O-glucosyl on Ser side chain (Ser(OGlu)/Ser(OGlc)); NH(3,5-(CF3)2-benzyl) = FC(F)(F)c1cc(CN*)cc(C(F)(F)F)c1; OBzl(3,5-(CF3)2) = FC(F)(F)c1cc(CO*)cc(C(F)(F)F)c1; Glc″ = glucosyl on the serine side-chain oxygen; O‑Bzl(CF3)2(3) = C-terminal O-Bzl(CF3)2 ester; NH‑Bn(CF3)2 = C-terminal Bn(CF3)2 amide; OBn(OMe)2 = C-terminal OBn(OMe)2 ester; Dmt = Cc1cc(O)cc(C)c1C[C@H](N)C(=O)O; Met(O) = CS(=O)CC[C@H](N)C(=O)O; NMe(benzyl) = CN(Cc1ccccc1)*; Nle = CCCC[C@H](N)C(=O)O; Aib = CC(C)(N)C(=O)O; NHBn = c1ccc(CN*)cc1; OBn = c1ccc(CO*)cc1
B1: H-Tyr-D-Ala-Gly-Phe-Nle-Pro-Leu-Trp-O-3,5-Bzl(CF3)2 (peptide)
peptide: YAGFXPLW
modifications: here or on the partner: D-Ala at 2; Nle (norleucine, written X) at 5; C-terminal 3,5-bis(trifluoromethyl)benzyl ester
B2: TyrDAlaGlyPheMet(O)ProLeuTrpOBn(CF3)2 (TY023) (peptide)
peptide: YAGFMPLW
modifications: here or on the partner: D-Ala at 2; Met(O) (oxidized methionine) at 5; C-terminal O-3,5-Bn(CF3)2 ester
B3: TyrDAlaGlyPheSer(OGlu)ProLeuTrpNHBn(CF3)2 (TY042) (peptide)
peptide: Y[dA]GFSPLW-{NH(3,5-(CF3)2-benzyl)}
modifications: not fully specified (residue 5); printed as TyrDAlaGlyPheSer(OGlu)ProLeuTrpNHBn(CF3)2
B4: TyrDAlaGlyPheNleProLeuTrpOBn(CF3)2 (peptide)
peptide: YAGFXPLW
modifications: here or on the partner: D-Ala at 2; Nle at 5 (written X); C-terminal O-3,5-Bzl(CF3)2 ester
B5: TyrDAlaGlyPheNleProLeuTrpOBn(CF3)2 (TY018) (peptide)
peptide: YAGFXPLW
modifications: here or on the partner: D-Ala at 2; Nle (norleucine) at 5 (X); C-terminal O-3,5-Bn(CF3)2 ester
B6: TyrDAlaGlyPheMet(O)ProLeuTrpOBn(CF3)2 (peptide)
peptide: YAGFMPLW
modifications: here or on the partner: D-Ala at 2; Met(O) at 5; C-terminal O-3,5-Bzl(CF3)2 ester
B7: TyrDAlaGlyPheNleProLeuTrpNHBn(CF3)2 (peptide)
peptide: YAGFXPLW
modifications: here or on the partner: D-Ala at 2; Nle at 5 (written X); C-terminal NH-3,5-Bzl(CF3)2 amide

Target: δ opioid receptor of the mouse isolated vas deferens (mouse) (UniProt P32300)
Assay: cell-based or functional assay

Sequence of δ opioid receptor of the mouse isolated vas deferens (mouse) (P32300 whole entry, stated change not applied): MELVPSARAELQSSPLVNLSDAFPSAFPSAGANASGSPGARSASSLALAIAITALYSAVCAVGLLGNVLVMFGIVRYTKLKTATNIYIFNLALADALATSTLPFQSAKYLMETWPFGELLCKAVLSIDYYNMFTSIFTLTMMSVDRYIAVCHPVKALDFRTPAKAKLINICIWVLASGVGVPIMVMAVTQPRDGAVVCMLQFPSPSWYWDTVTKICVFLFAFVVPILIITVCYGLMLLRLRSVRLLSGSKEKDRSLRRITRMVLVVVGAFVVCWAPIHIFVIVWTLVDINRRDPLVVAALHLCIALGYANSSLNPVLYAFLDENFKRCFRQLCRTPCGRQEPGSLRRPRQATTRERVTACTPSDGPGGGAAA

| Binder | MVD δ-agonist IC50 |
| --- | --- |
| Y[dA]GFLW-{O‑Bzl(CF3)2} [Tyr-DAla-Gly-Phe-Leu-Trp-O-Bzl(CF3)2 (NP37)] | 25.7 nM |
| Y[dA]GF[Aib]W-{O‑Bzl(CF3)2(3)} [Tyr-DAla-Gly-Phe-Aib-Trp-O-Bzl(CF3)2 (NP41)] | 36.2 nM |

Target: δ opioid receptor of the mouse isolated vas deferens (mouse), P32300
Assay: cell-based or functional assay

Sequence of δ opioid receptor of the mouse isolated vas deferens (mouse), P32300 (P32300 whole entry, stated change not applied): as above

| Binder | MVD opioid(delta) agonist IC50 | MVD (δ) opioid agonist IC50 | MVD IC50 | MVD (δ) IC50 |
| --- | --- | --- | --- | --- |
| Y[dA]GFMPLW-{NMe(benzyl)} [TyrDAlaGlyPheMetProLeuTrpNMeBn (TY026)] | 7.89 nM | – | – | – |
| B1 | – | 16.8 nM | – | – |
| YAGFXPLW (here or on the partner: D-Ala at 2; Nle at 5 (X); C-terminal NH-Bn(CF3)2 amide) [TyrDAlaGlyPheNleProLeuTrpNHBn(CF3)2 (TY045)] | 13.6 nM | – | – | – |
| B2 | 33 nM | – | – | – |
| Y[dA]GFMPLW-{OBn(OMe)2} [TyrDAlaGlyPheMetProLeuTrpOBn(OMe)2 (TY030)] | 12 nM | – | – | – |
| Y[dA]GFMPLW-OBn [TyrDAlaGlyPheMetProLeuTrpOBn (TY029)] | 7.62 nM | – | – | – |
| B3 | 109 nM | – | – | – |
| Y[dC]GF[Nle]PCW-{NH(3,5-(CF3)2-benzyl)} (disulfide 2-7) [Tyr[DCysGlyPheNleProCys]TrpNHBn(CF3)2 (TY035)] | 84.7 nM | – | – | – |
| Y[dA]GFMPLW-{NH(3,5-(CF3)2-benzyl)} [TyrDAlaGlyPheMetProLeuTrpNHBn(CF3)2] | – | – | 14.5 nM | – |
| Y[dA]GFMPLW-OH [TyrDAlaGlyPheMetProLeuTrpOH (TY043)] | 8.18 nM | – | – | – |
| Y[dA]GF[Nle]S(Glc″)LW-{NH‑Bn(CF3)2} [TyrDAlaGlyPheNleSer(OGlu)LeuTrpNHBn(CF3)2 (TY044)] | 18 nM | – | – | – |
| Y[dA]GFS(Glc)PLW-{NH(3,5-(CF3)2-benzyl)} [TyrDAlaGlyPheSer(OGlu)ProLeuTrpNHBn(CF3)2] | – | – | 109 nM | – |
| [Dmt][dA]GF[Nle]PS(Glc)W-{NH‑Bn(CF3)2} [DmtDAlaGlyPheNleProSer(OGlu)TrpNHBn(CF3)2 (TY056)] | 3.62 nM | – | – | – |
| Y[dA]GFLPLW-{OBzl(3,5-(CF3)2)} [TyrDAlaGlyPheLeuProLeuTrpOBn(CF3)2 (TY004)] | 101 nM | – | – | – |
| Y[dC]GF[Nle]P[dC]W-{NH(3,5-(CF3)2-benzyl)} (disulfide 2-7) [Tyr[DCysGlyPheNleProDCys]TrpNHBn(CF3)2] | – | – | – | 19 nM |
| Y[dA]GF[Nle]S(Glc″)LW-{NH(3,5-(CF3)2-benzyl)} [TyrDAlaGlyPheNleSer(OGlu)LeuTrpNHBn(CF3)2] | – | – | 18 nM | – |
| Y[dA]GF[Nle]PS(Glc)W-{NH(3,5-(CF3)2-benzyl)} [TyrDAlaGlyPheNleProSer(OGlu)TrpNHBn(CF3)2] | – | – | 12.7 nM | – |
| [Dmt][dA]GFMPLW-NHBn [DmtDAlaGlyPheMetProLeuTrpNHBn] | – | – | 6.9 nM | – |
| H-Y[dA]GFLPLW-{OBzl(3,5-(CF3)2)} (also: TFA salt) [H-Tyr-D-Ala-Gly-Phe-Leu-Pro-Leu-Trp-O-3,5-Bzl(CF3)2] | – | 101 nM | – | – |
| Y[dA]GFMPLW-{NH(3,5-(CF3)2-benzyl)} [TyrDAlaGlyPheMetProLeuTrpNHBn(CF3)2 (TY027)] | 14.5 nM | – | – | – |
| [Dmt][dA]GFMPLW-{NH(3,5-(CF3)2-benzyl)} [DmtDAlaGlyPheMetProLeuTrpNHBn(CF3)2 (TY032)] | 1.82 nM | – | – | – |
| H-Y[dA]GF[dF]PLW-{OBzl(3,5-(CF3)2)} (also: TFA salt) [H-Tyr-D-Ala-Gly-Phe-D-Phe-Pro-Leu-Trp-O-3,5-Bzl(CF3)2] | – | 412 nM | – | – |
| Y[dA]GF[Nle]PLS(Glc)W-{NH‑Bn(CF3)2} [TyrDAlaGlyPheNleProLeuSer(OGlu)TrpNHBn(CF3)2 (TY055)] | 17.4 nM | – | – | – |
| Y[dC]GF[Nle]PCW-{NH(3,5-(CF3)2-benzyl)} (disulfide 2-7) [Tyr[DCysGlyPheNleProCys]TrpNHBn(CF3)2] | – | – | – | 85 nM |
| Y[dA]GFGPLW-{OBzl(3,5-(CF3)2)} [TyrDAlaGlyPheGlyProLeuTrpOBn(CF3)2 (TY006)] | 172 nM | – | – | – |
| [Dmt][dA]GFMPLW-{NH(3,5-(CF3)2-benzyl)} [DmtDAlaGlyPheMetProLeuTrpNHBn(CF3)2] | – | – | 1.8 nM | – |

| Binder | MVD opioid(delta) agonist IC50 | MVD (δ) opioid agonist IC50 | MVD IC50 | MVD (δ) IC50 |
| --- | --- | --- | --- | --- |
| Y[dC]GFCPLW-{NH(3,5-(CF3)2-benzyl)} (disulfide 2-5) [Tyr[DCysGlyPheCys]ProLeuTrpNHBn(CF3)2 (TY039)] | 73.1 nM | – | – | – |
| Y[dA]GFFPLW-{OBzl(3,5-(CF3)2)} [TyrDAlaGlyPhePheProLeuTrpOBn(CF3)2 (TY003)] | 905 nM | – | – | – |
| B4 | – | – | 16.8 nM | – |
| H-Y[dA]GFMPLW-{OBzl(3,5-(CF3)2)} (also: TFA salt) [H-Tyr-D-Ala-Gly-Phe-Met-Pro-Leu-Trp-O-3,5-Bzl(CF3)2] | – | 22.3 nM | – | – |
| Y[dC]GF[dC]PLW-{NH(3,5-(CF3)2-benzyl)} (disulfide 2-5) [Tyr[DCysGlyPheDCys]ProLeuTrpNHBn(CF3)2] | – | – | – | 8.3 nM |
| Y[dA]GF[dF]PLW-{OBzl(3,5-(CF3)2)} [TyrDAlaGlyPheDPheProLeuTrpOBn(CF3)2 (TY007)] | 412 nM | – | – | – |
| Y[dA]GFLPLW-{OBzl(3,5-(CF3)2)} [TyrDAlaGlyPheLeuProLeuTrpOBn(CF3)2] | – | – | 101 nM | – |
| Y[dA]GFMPLW-{OBzl(3,5-(CF3)2)} [TyrDAlaGlyPheMetProLeuTrpOBn(CF3)2 (TY005)] | 22.3 nM | – | – | – |
| Y[dC]GF[dC]PLW-{NH(3,5-(CF3)2-benzyl)} (disulfide 2-5) [Tyr[DCysGlyPheDCys]ProLeuTrpNHBn(CF3)2 (TY037)] | 8.28 nM | – | – | – |
| H-Y[dA]GFFPLW-{OBzl(3,5-(CF3)2)} (also: TFA salt) [H-Tyr-D-Ala-Gly-Phe-Phe-Pro-Leu-Trp-O-3,5-Bzl(CF3)2] | – | 905 nM | – | – |
| [Dmt][dA]GFMPLW-{OBzl(3,5-(CF3)2)} [DmtDAlaGlyPheMetProLeuTrpOBn(CF3)2 (TY033)] | 1.27 nM | – | – | – |
| B5 | 16.8 nM | – | – | – |
| B6 | – | – | 33 nM | – |
| [Dmt][dA]GFMPLW-NHBn [DmtDAlaGlyPheMetProLeuTrpNHBn (TY034)] | 6.85 nM | – | – | – |
| Y[dA]GFGPLW-{OBzl(3,5-(CF3)2)} (also: TFA salt) [TyrDAlaGlyPheGlyProLeuTrpOBn(CF3)2] | – | – | 172 nM | – |
| B7 | – | – | 13.6 nM | – |
| Y[dA]GFMPLW-{NMeBn(CF3)2} [TyrDAlaGlyPheMetProLeuTrpNMeBn(CF3)2 (TY028)] | 11.2 nM | – | – | – |
| [Dmt][dA]GFMPLW-{OBzl(3,5-(CF3)2)} [DmtDAlaGlyPheMetProLeuTrpOBn(CF3)2] | – | – | 1.3 nM | – |
| Y[dC]GFCPLW-{NH(3,5-(CF3)2-benzyl)} (disulfide 2-5) [Tyr[DCysGlyPheCys]ProLeuTrpNHBn(CF3)2] | – | – | – | 73 nM |
| H-Y[dA]GF[Met(O)]PLW-{OBzl(3,5-(CF3)2)} (also: TFA salt) [H-Tyr-D-Ala-Gly-Phe-Met(O)-Pro-Leu-Trp-O-3,5-Bzl(CF3)2] | – | 33 nM | – | – |
| Y[dA]GFMPLW-{OBzl(3,5-(CF3)2)} [TyrDAlaGlyPheMetProLeuTrpOBn(CF3)2] | – | – | 22.3 nM | 22 nM |
| H-Y[dA]GFGPLW-{OBzl(3,5-(CF3)2)} (also: TFA salt) [H-Tyr-D-Ala-Gly-Phe-Gly-Pro-Leu-Trp-O-3,5-Bzl(CF3)2] | – | 172 nM | – | – |
| Y[dA]GF[Nle]PS(Glc)W-{NH‑Bn(CF3)2} [TyrDAlaGlyPheNleProSer(OGlu)TrpNHBn(CF3)2 (TY041)] | 12.7 nM | – | – | – |
| Y[dA]GFFPLW-{OBzl(3,5-(CF3)2)} [TyrDAlaGlyPhePheProLeuTrpOBn(CF3)2] | – | – | 905 nM | – |
| Y[dA]GF[dF]PLW-{OBzl(3,5-(CF3)2)} [TyrDAlaGlyPheDPheProLeuTrpOBn(CF3)2] | – | – | 412 nM | – |
| Y[dC]GFMPLW-{OBzl(3,5-(CF3)2)} [TyrDCysGlyPheMetProLeuTrpOBn(CF3)2 (TY031)] | 235 nM | – | – | – |

Source: patent US8026218
